Legend:
[1] = tested on: ACTIVASE recombinant human tissue-type plasminogen activator (r-tPA)
[2] = tested on: CHO plasminogen activator
[3] = tested on: TNK-tPA
TNK-tPA, sequence (chain, as listed by the source): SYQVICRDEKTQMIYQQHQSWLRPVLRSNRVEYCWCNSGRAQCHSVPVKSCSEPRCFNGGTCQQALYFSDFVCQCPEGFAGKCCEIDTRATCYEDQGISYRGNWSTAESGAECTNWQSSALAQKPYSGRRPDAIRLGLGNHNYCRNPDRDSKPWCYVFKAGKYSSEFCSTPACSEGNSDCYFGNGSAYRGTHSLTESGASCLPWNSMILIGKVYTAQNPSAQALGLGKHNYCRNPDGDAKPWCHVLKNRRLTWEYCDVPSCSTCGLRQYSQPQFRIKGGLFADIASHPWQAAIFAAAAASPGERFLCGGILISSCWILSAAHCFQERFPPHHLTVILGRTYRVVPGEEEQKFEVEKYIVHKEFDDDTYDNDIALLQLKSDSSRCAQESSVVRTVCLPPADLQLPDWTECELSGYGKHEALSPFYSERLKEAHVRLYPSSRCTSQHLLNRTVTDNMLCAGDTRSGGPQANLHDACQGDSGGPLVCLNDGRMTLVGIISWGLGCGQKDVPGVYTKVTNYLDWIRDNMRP

ACTIVASE recombinant human tissue-type plasminogen activator (r-tPA), sequence (chain, as listed by the source): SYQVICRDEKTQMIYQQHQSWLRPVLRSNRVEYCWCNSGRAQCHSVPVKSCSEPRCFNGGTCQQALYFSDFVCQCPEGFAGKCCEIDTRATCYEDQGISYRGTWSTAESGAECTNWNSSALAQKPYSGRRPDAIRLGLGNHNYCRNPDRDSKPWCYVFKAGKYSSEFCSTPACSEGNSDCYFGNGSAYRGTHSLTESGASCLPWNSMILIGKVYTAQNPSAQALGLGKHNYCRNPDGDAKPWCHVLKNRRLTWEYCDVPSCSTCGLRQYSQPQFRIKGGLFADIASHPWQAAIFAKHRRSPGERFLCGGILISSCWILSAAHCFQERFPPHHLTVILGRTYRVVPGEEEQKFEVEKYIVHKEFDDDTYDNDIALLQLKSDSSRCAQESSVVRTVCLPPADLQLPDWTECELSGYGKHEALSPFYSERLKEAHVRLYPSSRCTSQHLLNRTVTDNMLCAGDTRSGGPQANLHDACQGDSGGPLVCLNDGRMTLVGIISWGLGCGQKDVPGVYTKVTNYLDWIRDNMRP
CHO plasminogen activator, sequence (chain, as listed by the source): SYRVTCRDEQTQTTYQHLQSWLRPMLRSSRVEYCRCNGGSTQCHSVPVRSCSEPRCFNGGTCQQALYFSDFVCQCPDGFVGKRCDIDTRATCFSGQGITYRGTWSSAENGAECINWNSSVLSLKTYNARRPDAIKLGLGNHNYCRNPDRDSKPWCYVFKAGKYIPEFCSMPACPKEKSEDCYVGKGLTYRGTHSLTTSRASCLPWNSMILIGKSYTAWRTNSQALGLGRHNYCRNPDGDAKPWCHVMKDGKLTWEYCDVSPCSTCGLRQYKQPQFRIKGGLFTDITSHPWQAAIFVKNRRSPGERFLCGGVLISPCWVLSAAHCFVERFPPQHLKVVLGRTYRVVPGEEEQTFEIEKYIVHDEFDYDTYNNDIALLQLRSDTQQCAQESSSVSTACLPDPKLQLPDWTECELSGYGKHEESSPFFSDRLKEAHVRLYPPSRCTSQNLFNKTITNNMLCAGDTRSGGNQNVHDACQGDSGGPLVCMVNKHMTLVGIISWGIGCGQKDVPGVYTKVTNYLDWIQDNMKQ

Substance: Plasminogen
- conversion of single-chain form to two-chain form (reversed-phase HPLC after plasmin and DTT/urea treatment) [1]: incubation with plasminogen converts the single-chain form of the three plasminogen activators to the two-chain form
- conversion of single-chain form to two-chain form (reversed-phase HPLC after plasmin and DTT/urea treatment) [2]: incubation with plasminogen converts the single-chain form of the three plasminogen activators to the two-chain form
- conversion of single-chain form to two-chain form (reversed-phase HPLC after plasmin and DTT/urea treatment) [3]: incubation with plasminogen converts the single-chain form of the three plasminogen activators to the two-chain form

Source: patent US20030199016
